Our source for the IC50, inhibition of hepsin enzymatic activity towards S2366 (amidolytic assay), activity in amidolytic assays as percent of wildtype and KD2 mutant and fold reduction of inhibitory activity against wildtype sHAI-1B (amidolytic assay) values is US20100209956A1.

Residue numbers refer to the chain shown, from its start. In names and notes the source's numbering stands.

For the experiment, the target named is soluble form of hepsin encompassing the entire extracellular domain (Arg45-Leu417) and a C-terminal His8 tag (human) (UniProt P05981). In words: cell-based or functional assay.
Sequence of soluble form of hepsin encompassing the entire extracellular domain (Arg45-Leu417) and a C-terminal His8 tag (human) (P05981 45-162 limits assumed, chain 1 of 2): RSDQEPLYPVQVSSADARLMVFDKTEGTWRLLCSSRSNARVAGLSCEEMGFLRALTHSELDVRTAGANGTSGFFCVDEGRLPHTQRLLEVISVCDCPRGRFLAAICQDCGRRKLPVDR
Sequence of soluble form of hepsin encompassing the entire extracellular domain (Arg45-Leu417) and a C-terminal His8 tag (human) (P05981 other isoform, or with tags, fused parts or gaps limits assumed, chain 2 of 2): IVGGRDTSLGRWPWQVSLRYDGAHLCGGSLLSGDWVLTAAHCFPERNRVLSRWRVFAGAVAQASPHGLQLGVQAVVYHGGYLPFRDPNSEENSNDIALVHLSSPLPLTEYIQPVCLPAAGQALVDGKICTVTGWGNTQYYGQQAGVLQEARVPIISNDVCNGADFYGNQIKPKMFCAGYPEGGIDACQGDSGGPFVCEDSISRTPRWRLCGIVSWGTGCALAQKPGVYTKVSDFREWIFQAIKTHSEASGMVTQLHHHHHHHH

B1: soluble form of HAI-2 (sHAI-2), extracellular domain Ala28-Lys197 with a C-terminal His8 tag with a Gly spacer (protein, human, not shown: small tags and cut ends)
chain: ADRERSIHDFCLVSKVVGRCRASMPRWWYNVTDGSCQLFVYGGCDGNSNNYLTKEECLKKCATVTENATGDLATSRNAADSSVPSAPRRQDSEDHSSDMFNYEEYCTANAVTGPCRASFPRWYFDVERNSCNNFIYGGCRGNKNSYRSEEACMLRCFRQQENPPLPLGSKHHHHHHHH
Molecule B1 came in with an IC50, inhibition of hepsin enzymatic activity towards S2366 (amidolytic assay) of 1.3 nM.

B2: sHAI-1B(K401A) (protein, UniProt O43278 36-465, looked up)
chain: GPPPAPPGLPAGADCLNSFTAGVPGFVLDTNASVSNGATFLESPTVRRGWDCVRACCTTQNCNLALVELQPDRGEDAIAACFLINCLYEQNFVCKFAPREGFINYLTREVYRSYRQLRTQGFGGSGIPKAWAGIDLKVQPQEPLVLKDVENTDWRLLRGDTDVRVERKDPNQVELWGLKEGTYLFQLTVTSSDHPEDTANVTVTVLSTKQTEDYCLASNKVGRCRGSFPRWYYDPTEQICKSFVYGGCLGNKNNYLREEECILACRGVQGGPLRGSSGAQATFPQGPSMERRHPVCSGTCQPTQFRCSNGCCIDSFLECDDTPNCPDASDEAACEKYTSGFDELQRIHFPSDKGHCVDLPDTGLCAESIPRWYYNPFSEHCARFTYGGCYGNKNNFEEEQQCLESCRGISKKDVFGLRREIPIPSTGSVE
B2: the IC50, inhibition of hepsin enzymatic activity towards S2366 (amidolytic assay) is 18.2 nM.

B3: sHAI-1B(R260A) (protein, UniProt O43278 36-465, looked up)
chain: B2 chain with R225A, A366K
In turn, B3 returned an IC50, inhibition of hepsin enzymatic activity towards S2366 (amidolytic assay) above 1000 nM; an activity in amidolytic assays as percent of wildtype and KD2 mutant below 1%; a fold reduction of inhibitory activity against wildtype sHAI-1B (amidolytic assay) above 47 fold.
